Source: patent publication US20250296963A1, “PEPTIDE HAVING ANTIMICROBIAL ACTIVITY” (priority 2022, published 2025)
Values after ≈ are worked out from the molar mass of the structure shown.

B1: SEQ ID No 2: Cocoa vicilin-derived antimicrobial peptide of the invention, recombinant or synthetic, mass of 15.3 kDa (peptide)
chain: YGRKQYERDPRQQYEQCQRRCESEATEEREQEQCEQRCEREYKEQQRQQEEELQRQYQQCQGRCQEQQQGQREQQQCQRKCWEQYKEQERGEHENYHNHK
modifications: peptide according to an embodiment of the invention
notes: Cocoa vicilin-derived antimicrobial peptide of the invention, recombinant or synthetic, mass of 15.3 kDa
B2: SEQ ID No 1: Antimicrobial peptide from the N-terminal region of Theobroma cacao (CCN-51) vicilin protein, 15 kDa spot; natural, recombinant or synthetic (peptide)
chain: YGRKQYERDPRQQYEQCQRRCESEATEEREQEQCEQRCEREYKEQQRQQEEELQRQYQQCQGRCQEQQQGQREQQQCQRKCWEQYKEQERGEHENYHNHKKN
modifications: Theobroma cacao
notes: Antimicrobial peptide from the N-terminal region of Theobroma cacao (CCN-51) vicilin protein, 15 kDa spot; natural, recombinant or synthetic

Key:
Type in all cases: cell-based
Ceratosystis paradoxa = assay: organism not typed; details: Ceratosystis paradoxa DSMZ 63054, PDA, 18° C., overnight
Procedure: (§1) The antimicrobial potential of the peptides described herein was compared with the activity of two other AMPs, TcAMP1 and TcAMP2 as discussed in WO1998027805, and antibiotics or fungicides. Comparative MIC assays were carried out against several bacterial and fungal species (Table 1).
(§2) Peptides according to SEQ ID N° 1, SEQ ID N° 2, SEQ ID N° 4, SEQ ID N° 6, and SEQ ID N° 7 were serially diluted in order to create a concentration sequence ranging from 0.39 μg/ml to […].
(§3) Pantoea, Staphylococcus, and Listeria were cultured in Trypticase Soy Broth (TSY) medium consisting of 1.7% casein peptone, 0.3% soy peptone, 0.25% glucose, 0.5% NaCl, 0.25% K2HPO4 and optionally 1.5% agar. Candida cells were cultured in Yeast Extract Peptone Dextrose (YPD) broth medium consisting of 1% yeast extract, 2% peptone, 2% glucose, and optionally 2% agar. Ceratocystis, Botrytis, Leptosphaeria, Mycosphaerella, Sclerotinia, and Verticillium were cultured in Potato Dextrose Agar (PDA) medium consisting of 2.4% Difco pre-mix broth and optionally 1.5% agar.
(§4) For the MIC assay bacteria and fungi were grown on agar plates with their respective media. Pre-cultures were prepared by inoculating either single bacterial colonies or small pieces of fungi in 5 ml of the respective liquid medium. The optical density (OD) at 600 nm was measured after one to five days and adjusted to an OD600 of 1. This cell suspension was used to prepare 1:500 dilutions, corresponding to approximately 2×10^6 microbial cells per ml.
(§5) To evaluate MICs, 96-well plates were prepared with the test antimicrobial peptides. Each well contained 100 μl microbial cell culture, 90 μl culture medium, and 10 μl peptide or control at the corresponding dilution. The plates were incubated overnight (ON) at the optimal growth temperature for each tested organism (Table 1). Results were visually evaluated and MICs determined based on growth or no-growth.
(§6) MIC assays were conducted in at least two independent replicates and with different peptide starting concentrations.

Leptosphaeria maculans = assay: microbe, parasite or virus in culture; details: Leptosphaeria maculans SF 70, PDA, 18° C., overnight
Procedure: as §1, §2, §3, §4, §5, §6

Verticillium dahliae = assay: microbe, parasite or virus in culture; details: Verticillium dahliae SF 76, PDA, 28° C., overnight
Procedure: as §1, §2, §3, §4, §5, §6

Candida albicans = assay: microbe, parasite or virus in culture; details: Candida albicans DSM 1386, YPD, 30° C., overnight
Procedure: as §1, §2, §3, §4, §5, §6

Botrytis cinerea = assay: microbe, parasite or virus in culture; details: Botrytis cinerea DSMZ 877, PDA, 24° C., overnight
Procedure: as §1, §2, §3, §4, §5, §6

Sclerotinia sclerotiorum = assay: microbe, parasite or virus in culture; details: Sclerotinia sclerotiorum SF 79, PDA, 18° C., overnight
Procedure: as §1, §2, §3, §4, §5, §6

Mycosphaerella pinodes = assay: microbe, parasite or virus in culture; details: Mycosphaerella pinodes DSMZ 62763, PDA, 30° C., overnight
Procedure: as §1, §2, §3, §4, §5, §6

E. coli = assay: MIC assay, E. coli
Procedure: as §1, §2, §4, §5, §6

Pantoea agglomerans = Pantoea agglomerans JUB-CC-3253, TSY, 37° C., overnight
Procedure: as §1, §2, §3, §4, §5, §6

Listeria monocytogenes [1] = assay: microbe, parasite or virus in culture; details: Listeria monocytogenes DSM 102976, TSY, 37° C., overnight
Procedure: as §1, §2, §3, §4, §5, §6

[2] = tested on: Staphylococcus aureus MRSA; assay: microbe, parasite or virus in culture; details: Staphylococcus aureus MRSA DSM 11729, TSY, 37° C., overnight
Procedure: as §1, §2, §3, §4, §5, §6

Listeria monocytogenes [3] = assay: Cow milk assay, MIC against Listeria monocytogenes
Procedure: (§7) In vitro experiments were conducted to test the behavior of the peptides as disclosed herein in 3.5% fat cow milk, against Listeria monocytogenes. The peptide according to the SEQ ID N° 1 was adjusted to a concentration of 1 mg/ml and mixed with cow milk in equal parts. This mixture was incubated overnight at 37° C. To remove solid parts of the milk, the mixture was centrifuged and the obtained supernatant was used for MICs.

[4] = tested on: several bacterial and fungal species; assay: Comparative MIC assays, all tested organisms; details: bacterial species of Table 3, all tested species
Procedure: as §1, §2, §3
For the MIC assay bacteria and fungi were grown on agar plates with their respective media. […] The optical density (OD) at 600 nm was measured after one to five days and adjusted to an OD600 of 1. […]
To evaluate MICs, 96-well plates were prepared with the test antimicrobial peptides. […] Results were visually evaluated and MICs determined based on growth or no-growth. […]

C. albicans = assay: Peptide stability in bodily fluids (sheep blood, urine), MIC against C. albicans; details: Candida albicans
Procedure: as §7, with “blood,” for “3.5% fat cow milk,”, “C. albicans. C. albicans isolates from human blood were used (DSMZ 6569).” for “Listeria monocytogenes.”, “sheep blood” for “cow milk”, “30°” for “37°”, “blood,” for “milk,”, “obtained plasma” for “obtained”
as §7, with “urine,” for “3.5% fat cow milk,”, “C. albicans.” for “Listeria monocytogenes.”, “synthetic urine or human urine” for “cow milk”, “These mixtures were” for “This mixture was”, “30°” for “37°”, “urine,” for “milk,”

Erwinia amylovora = assay: MIC assay in soil slurry
Procedure: In vitro experiments were conducted to test the behavior of the peptides as disclosed herein in soil slurry, against Erwinia amylovora. Soil slurry was generated by mixing 5 g soil in 20 ml water. This mixture was incubated for 1 h at an overhead shaker. The solid parts were removed by centrifugation and the obtained supernatant, referred to as soil slurry, was used for the MIC assay. Equal volumes of the peptide according to SEQ ID N°1 (8 mg/ml) and soil slurry were mixed and incubated overnight at 28° C. The mixture was used for MIC against Erwinia amylovora.

[5] = read-out: Minimal inhibitory concentration

| Molecule | Minimal inhibitory concentration (E. coli) [µg/mL] | Minimal inhibitory concentration (Pantoea agglomerans) [µg/mL] | Minimal inhibitory concentration (Listeria monocytogenes [1]) [µg/mL] | Minimal inhibitory concentration [2] [µg/mL] | Minimal inhibitory concentration (Ceratosystis paradoxa) [µg/mL] | efficiency compared with the prior art peptides [4] | Minimal inhibitory concentration (Leptosphaeria maculans) [µg/mL] | Minimal inhibitory concentration (Verticillium dahliae) [µg/mL] | Minimal inhibitory concentration (Candida albicans) [µg/mL] | Minimal inhibitory concentration (Botrytis cinerea) [µg/mL] | Minimal inhibitory concentration (Sclerotinia sclerotiorum) [µg/mL] | Minimal inhibitory concentration (Mycosphaerella pinodes) [µg/mL] | other results |
| --- | --- | --- | --- | --- | --- | --- | --- | --- | --- | --- | --- | --- | --- |
| Clc1ccccc1C(c1ccccc1)(c1ccccc1)n1ccnc1 [Clotrimazole] |  |  |  |  |  |  |  |  |  |  |  |  | MIC (Ceratosystis paradoxa; [5]): 0.4 µg/mL (≈ 1.16 µM); MIC (Leptosphaeria maculans; Plenodomus lingam, read-out: Minimal inhibitory concentration): 0.4 µg/mL (≈ 1.16 µM); MIC (Verticillium dahliae; [5]): 1.56 µg/mL (≈ 4.52 µM); MIC (Candida albicans; DSM1386, read-out: Minimal inhibitory concentration): 3.1 µg/mL (≈ 8.99 µM); MIC (Botrytis cinerea; DSMZ877, read-out: Minimal inhibitory concentration): 6.25 µg/mL (≈ 18.1 µM); MIC (Sclerotinia sclerotiorum; [5]): 25 µg/mL (≈ 72.5 µM); MIC (Mycosphaerella pinodes; Didymella pinodes, DSMZ62763, read-out: Minimal inhibitory concentration): 3.1 µg/mL (≈ 8.99 µM) |
| Gentamycin | 1 | 1.56 | 0.4 | 0.8 |  |  |  |  |  |  |  |  |  |
| CN(C)[C@@H]1C(O)=C(C(N)=O)C(=O)[C@@]2(O)C(O)=C3C(=O)c4c(O)cccc4[C@@](C)(O)[C@H]3C[C@@H]12 [Tetracycline, tetracycline] |  |  |  |  |  |  |  |  |  |  |  |  | MIC (Listeria monocytogenes [3]; control, milk-free (and reference drug), read-out: Minimal inhibitory concentration): 1.6 µg/mL (≈ 3.6 µM) |
| B1 | 6.2 | 1.9 | 7.1 | 7.1 | 6.25 | more efficient than the prior art peptides | 6.25 | 3.1 | 3.1 | 6.25 | 19.3 | 4.5 |  |
| B2 | 3.1 | 1.1 | 3.1 | 3.1 | 5 | more efficient than the prior art peptides | 3.75 | 1.6 | 0.4 | 6.25 | 10.25 | 1.9 | Minimal inhibitory concentration (Listeria monocytogenes [3]; control, milk-free (and reference drug)): 3.1 µg/mL; Minimal inhibitory concentration (Listeria monocytogenes [3]; control, milk-free (and reference drug), listed as SEQ ID N° 1): 3.2 µg/mL; Minimal inhibitory concentration (Listeria monocytogenes [3]; peptide 1 mg/ml mixed with 3.5% fat cow milk in equal parts, overnight 37° C., supernatant): 80 µg/mL; Minimal inhibitory concentration (C. albicans; control, no bodily fluid (and reference drug)): 0.4 µg/mL; Minimal inhibitory concentration (C. albicans; peptide 1 mg/ml mixed with human urine in equal parts, overnight 30° C., supernatant): 5 µg/mL; Minimal inhibitory concentration (C. albicans; peptide 1 mg/ml mixed with sheep blood in equal parts, overnight 30° C., plasma supernatant): 25 µg/mL; Minimal inhibitory concentration (C. albicans; peptide 1 mg/ml mixed with synthetic urine in equal parts, overnight 30° C., supernatant): 2 µg/mL; concentration inhibiting bacteria growth (MIC) (Erwinia amylovora; control conditions): 15 µg/mL; concentration inhibiting bacteria growth (MIC) (Erwinia amylovora; peptide (8 mg/ml) mixed with equal volume of soil slurry, overnight 28° C.): 25 µg/mL |
